# Source: article PMC4092016, “Molecular Characterization of the Na^+/H^+-Antiporter NhaA from Salmonella Typhimurium” (PLoS ONE, 2014)
# B1: Na+/H+ antiporter NhaA from Salmonella enterica serovar Typhimurium LT2, recombinant with carboxy-terminal hexahistidine tag (natural protein)
# chain: NLGILKHLHRFFSSDASGGIILIIAAALAMLMANMGATSGWYHDFLETPVQLRVGALEINKNMLLWINDALMAVFFLLIGLEVKRELMQGSLASLRQAAFPVIAAIGGMIVPALLYLAFNYSDPVTREGWAIPAATDIAFALGVLALLGSRVPLALKIFLMALAIIDDLGAIVIIALFYTSDLSIVSLGVAAFAIAVLALLNLCGVRRTGVYILVGAVLWTAVLKSGVHATLAGVIVGFFIPLKEKHGRSPAKRLEHVLHPWVAYLILPLFAFANAGVSLQGVTIDGLTSMLPLGIIAGLLIGKPLGISLFCWLALRFKLAHLPQGTTYQQIMAVGILCGIGFTMSIFIASLAFGNVDPELINWAKLGILIGSLLSAVVGYSWLRARLNAPA
# notes: five residues that the expression construct adds at the amino-terminus; Na+/H+ antiporter NhaA, S. Typhimurium LT2, wild type; coding region (nhaA, STM0039) amplified from genomic DNA; calculated mass of the construct 44.01 kDa; Integral membrane protein, held in β-DDM detergent; also called STNhaA; STNhaA-His6; source: E. coli NM554 (pTTQ18A1-STNhaA-His6), membranes solubilized in β-DDM, …
# Biological target: the molecule itself
# Assay: SEC-MALS; SEC-MALLS with refractive index and UV280 monitoring; two coupled Superdex 200 5/15 columns; 10 mM MES pH 6, 150 mM NaCl, 0.03% β-DDM; 80 µg IMAC-purified STNhaA; protein conjugate analysis separating protein and detergent mass
protein,measurement,value
B1,stoichiometry N,2
